Holding throughout (details): both partners purified
In assay [1] the target is T1, Antigenic site II synthetic peptide of RSV F (254-278) (Human respiratory syncytial virus A, …).
T1 construct: RSV F antigenic site II, residues 254-278; also called Site II peptide; full-length peptide; source: synthetic peptide (Peptide 2.0)
T1 chain: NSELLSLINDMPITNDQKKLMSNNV
Description: SPR; Biacore T200; mAb (2 ug/mL, 90 s) captured on protein A or protein G on a CM5 chip; site II peptides injected at 100, 200, 400, 800 nM, 180 s, then 600 s buffer; 1:1 fit; apparent KD = kd/ka. (Surface plasmon resonance follows binding to a sensor surface in real time, without labels.)

The target of assay [2] is T2, Antigenic site II peptide 264-278 (Human respiratory syncytial virus A (A2 …)).
T2 construct: RSV F antigenic site II, residues 264-278; source: synthetic peptide (Peptide 2.0)
T2 chain: MPITNDQKKLMSNNV
Described as above.

Assay [3] addresses T3, Antigenic site II peptide 254-273 (human respiratory syncytial virus).
T3 construct: RSV F antigenic site II, residues 254-273; source: synthetic peptide (Peptide 2.0)
T3 chain: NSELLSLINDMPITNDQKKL
The description is as above.

Assay [4] concerns the target T4, Antigenic site II peptide 260-278 (Human respiratory syncytial virus A (A2 …)).
T4 construct: RSV F antigenic site II, residues 260-278; source: synthetic peptide (Peptide 2.0)
T4 chain: LINDMPITNDQKKLMSNNV
The description is as above.

For assay [5], the target named is T5, Antigenic site II peptide 254-268 (Human respiratory syncytial virus A (A2 …)).
T5 construct: RSV F antigenic site II, residues 254-268; source: synthetic peptide (Peptide 2.0)
T5 chain: NSELLSLINDMPITN
The assay is described as above.

Assay [6] has as its target T6, Antigenic site II peptide 259-273 (Human respiratory syncytial virus A (A2 …)).
T6 construct: RSV F antigenic site II, residues 259-273; source: synthetic peptide (Peptide 2.0)
T6 chain: SLINDMPITNDQKKL
Described as above.

In assay [7] the target is T7, Pre-fusion F (Human respiratory syncytial virus A, …, UniProt P03420, stabilised).
T7 construct: Fusion (F) glycoprotein F0 of human RSV/A2, residues 26-574, intact TM/CT; mutant furin site I, p27 region deleted, fusion peptide deletion, three stabilizing substitutions; Expressed with a gp64 signal peptide; also called pre-fusion RSV F; pre-fusion trimer; source: Sf9, baculovirus-infected, extracted from cell pellets, purified
Nature of the assay: SPR; Biacore T200; mAb (2 ug/mL) captured on protein A or protein G amine-coupled to a CM5 chip; RSV F injected at 3.3, 10, 30, 90 nM, 180 s association, 600 s dissociation; 1:1 fit; apparent KD = kd/ka.

The target of assay [8] is T8, Post-fusion F (Human respiratory syncytial virus A, …, stabilised).
T8 construct: Fusion (F) glycoprotein of human RSV/A2 from residue 26, TM/CT domains replaced with a C-terminal 6-histidine tag; Expressed with a gp64 signal peptide; also called post-fusion RSV F; post-fusion trimer; source: Sf9, baculovirus-infected, culture supernatant, purified (IMAC, ion exchange)
The description is as above.

B1: R4.C6 monoclonal antibody (antibody, V domains shown)
VH: EVQLQQSGPELVKPGASVKISCKASGYAFSNSWMSWVKQRPGKGLEWIGRLFPADGDITYNGHFKDKAALTADKSSNTAYIQLSSLTSEDSAVYFCARMDNSEVFWGQGTLVTVSA
VL: DILLTQSQKFMSTSVGDRVSITCKASQNVRTGVSWYQRKPGQSPKALIYLASNRHTGVPDRFTGRGSGTDFTLTISEVQSEDLADYFCLQHWTVPYTFGGGTKLEIK
notes: mouse IgG2a; mouse kappa; Only the Fv was modelled in 6CXC; also called mAb R4.C6; source: mouse hybridoma (BALB/c immunized with RSV F NP), serum free medium, purified (protein-G)
With B1, the Kd in assay [1] is 12.5 nM; in assay [2] it was 110 nM; in assay [4] it was 84.2 nM; in assay [8], 0.34 nM. Moreover, the binding result was “no binding (tested: 800 nM)” in assay [3], “no binding (tested: 800 nM)” in assay [5], “no binding (tested: 800 nM)” in assay [6] and “binds” in assay [7].

B2: Motavizumab (antibody, V domains shown)
VH: QVTLRESGPALVKPTQTLTLTCTFSGFSLSTAGMSVGWIRQPPGKALEWLADIWWDDKKHYNPSLKDRLTISKDTSKNQVVLKVTNMDPADTATYYCARDMIFNFYFDVWGQGTTVTVSS
VL: DIQMTQSPSTLSASVGDRVTITCSASSRVGYMHWYQQKPGKAPKLLIYDTSKLASGVPSRFSGSGSGTEFTLTISSLQPDDFATYYCFQGSGYPFTFGGGTKVEIK
notes: IgG1; kappa; also called motatvizumab; source: obtained from National Institute of Standards and Technology
Turning to B2, the Kd in assay [1] came to 26.7 nM. For the same molecule, the binding result in assay [7] is given as “binds”.

These data come from article PMC6366758, “Structure basis of neutralization by a novel site II/IV antibody against respiratory syncytial virus fusion protein” (PLoS ONE, 2019).
